Our source for the half-life (t1/2) of mVenus-FRB in the mV^RD-CUL1 strain after the addition of 500 nM rapamycin (the bridging compound), immunoblot time course and half-life (t1/2) of mVenus-FRB in the mV^RD-SKP1 strain after the addition of 500 nM rapamycin (the bridging compound), immunoblot time course values is paper PMC11376382.

In assay [1] the target is 3×HA-FKBP-CUL1 (human | Cyanidioschyzon merolae).
In assay [2] the target is 3×HA-FKBP-SKP1 (human | Cyanidioschyzon merolae).

In the case of mVenus-FRB (domain or fragment), in assay [1], the half-life (t1/2) of mVenus-FRB in the mV^RD-CUL1 strain after the addition of 500 nM rapamycin (the bridging compound), immunoblot time course was 30 min. This substance yielded a half-life (t1/2) of mVenus-FRB in the mV^RD-SKP1 strain after the addition of 500 nM rapamycin (the bridging compound), immunoblot time course in assay [2] of 46 min.
